Experiments:
type A IL-8 receptor = target: T1, type A IL-8 receptor (Homo sapiens, UniProt P25024); test: Binding to RBL2H3 cells transfected with IL-8 receptor type A; conditions: read-out: Kd on cells expressing the type A IL-8 receptor; transfected RBL2H3 rat basophilic leukemia cells
T1 construct: expressed in transfected cells; host or cells: RBL2H3 rat basophilic leukemia cells
T1 sequence (P25024 1-350): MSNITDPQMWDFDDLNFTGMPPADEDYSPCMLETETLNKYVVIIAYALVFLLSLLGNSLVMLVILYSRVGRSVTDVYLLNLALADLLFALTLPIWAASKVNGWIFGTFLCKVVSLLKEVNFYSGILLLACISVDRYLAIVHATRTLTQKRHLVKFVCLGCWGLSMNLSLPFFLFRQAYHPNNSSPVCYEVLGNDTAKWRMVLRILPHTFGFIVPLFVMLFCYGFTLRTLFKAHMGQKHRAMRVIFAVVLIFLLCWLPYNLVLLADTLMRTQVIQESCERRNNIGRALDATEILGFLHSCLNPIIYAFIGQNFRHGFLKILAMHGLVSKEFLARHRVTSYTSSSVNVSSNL
Procedure: Following incubation, cells were separated from unbound radioactivity as described herein.
Untransfected RBL2H3 cells express neither the type A nor type B receptors.

MPs [1] = test: MP chemotaxis assay (ChemoTX microchemotaxis chamber); format: cell-based, human; conditions: sample proteins 1 nM, 3 hours
Procedure: (§1) Cells for the various cytokine assays described were prepared from acid citrate dextrose-treated blood of normal healthy volunteers. Human PMNs were isolated from the blood by centrifugation (700×g) over Histopaque 1077 and 1119 (Sigma). […] This procedure was repeated twice. Human MPs were isolated by centrifugation on Histopaque 1077 (Sigma). The mononuclear fraction was obtained, washed twice in Hanks' balanced salt solution, resuspended in RPMI-1640 medium (Sigma) containing 10% heat-inactivated fetal bovine serum (Sigma), plated in tissue culture flasks, and incubated in a 6% CO2 incubator at 37° C. for 1-2 hours (Kumagai et al., 1979, J. Immunol. Methods 29:17-25). Nonadherent cells were removed by washing the flasks three times with Hanks' balanced salt solution, and adherent cells were harvested by incubation with calcium-magnesium free phosphate-buffered saline containing 2 mM EDTA for 15 minutes at 4° C., followed by extensive washing.
MP chemotaxis assays were performed in a ChemoTX microchemotaxis chamber (Neuro Probe, Gaithersburg, Md.) containing polycarbonate filters (5 μm pores) with polyvinylpyrrolidone (PVP). MPs were suspended in RPMI-1640 medium containing 1% heat-inactivated fetal bovine serum, and 10^4 cells were added to the upper chamber. Sample proteins (1 nM) were added to the lower compartment of chemotaxis chambers, and the chambers were incubated for 3 hours. After incubation, nonmigrating cells were removed, membranes were fixed in methanol, and migrating cells were visualized with the HEMACOLOR™ stain set (EM Diagnostic Systems, Gibbstown, N.J.). Migrating cells were counted in high-power fields (HPFs). Each determination shown in FIG. 2 represents the average of nine HPF measurements.

[2] = tested on: chick chorioallantoic membrane (CAM); test: In vivo angiogenesis assay in chick chorioallantoic membrane (CAM); conditions: 250 ng TyrRS molecule or 25 ng VEGF165 on filter disk, 72 hours
Procedure: In vivo angiogenesis assays were conducted in chick chorioallantoic membrane (CAM) (Nicolaou et al., 1998, Bioorg. Med. Chem. 6:1185-208). Ten-day-old chick embryos were purchased from Mcintyre Poultry (Lakeside, Calif.) and were incubated at 37° C. and 70% humidity. A small hole was made with a small crafts drill (Dremel, Emerson Electric, Racine, Wis.) directly over the air sac at the end of the egg. The embryos were candled to determine a location to drill a second hole directly over embryonic blood vessels. […] A window was cut in the eggshell over the dropped CAM, exposing the CAM to direct access for experimental manipulation. Cortisone acetate-treated 5 mm filter disks were soaked with a particular protein sample (25 ng of VEGF165 or 250 ng of a given TyrRS molecule) and the filter disks added directly to the CAMs, which were relatively devoid of preexisting blood vessels. The windows were sealed with sterile tape and incubated at 37° C. […] After 72 hours, the CAM tissue associated with the filter disk was harvested and quantified using a stereomicroscope. Angiogenesis was assessed as the number of visible blood vessel branch points within the defined area of the filter disks. Each determination shown in FIG. 17 represents the mean from 5-8 embryos.

MPs [3] = test: MP TNFα production (ELISA of culture supernatant); format: cell-based, human; conditions: 1 nM sample protein, 14 hours
Procedure: as §1
MP TNFα production was examined following incubation of 10^5 MPs with 1 nM of sample protein for 14 hours. Aliquots of the culture supernatant were then assayed for TNFα production using a TNFα enzyme-linked immunosorbent assay kit (Sigma). Each determination shown in FIG. 2 represents the mean of four measurements from at least three independent experiments.

B1: mini TyrRS: truncated TyrRS, residues 1-364 of full-length TyrRS, amino-terminal catalytic domain (protein)
chain: MGDAPSPEEKLHLITRNLQEVLGEEKLKEILKERELKIYWGTATTGKPHVAYFVPMSKIADFLKAGCEVTILFADLHAYLDNMKAPWELLELRVSYYENVIKAMLESIGVPLEKLKFIKGTDYQLSKEYTLDVYRLSSVVTQHDSKKAGAEVVKQVEHPLLSGLLYPGLQALDEEYLKVDAQFGGIDQRKIFTFAEKYLPALGYSKRVHLMNPMVPGLTGSKMSSSEEESKIDLLDRKEDVKKKLKKAFCEPGNVENNGVLSFIKHVLFPLKSEFVILRDEKWGGNKTYTAYVDLEKDFAAEVVHPGDLKNSVEVALNKLLDPIREKFNTPALKKLASAAYPDPSKQKPMAKGPAKNSEPEEVILEHHHHHH
modifications: His6 tag; Human mini TyrRS in pET20B
notes: truncated TyrRS, residues 1-364 of full-length TyrRS, amino-terminal catalytic domain
Kd (type A IL-8 receptor): 8 nM
MP chemotaxis (MP migration) (MPs [1]): did not induce MP migration
in vivo angiogenesis in chick CAM (blood vessel branch points) [2]: induced angiogenesis
MP TNFα production (MPs [3]): did not stimulate production
